These are literature values, as cited in US20240024427A1, “METHOD OF REDUCING INTRAOCULAR PRESSURE” (INVEX THERAPEUTICS LTD, priority 2020, published 2024).

Read-outs that look alike come from different tables or passages of the source.

For data set [1] the following is noted: conscious rat model, dosed subcutaneously, immediate release formulation.

Take Albiglutide: under “per SmPC”, the “Mean plasma terminal half-life” value is “Approximately 5 days”. With Dulaglutide, the “Mean plasma terminal half-life” value (per SmPC) is 108 to 113 h.

Regarding exendin-4, the “effect on intracranial pressure (ICP) compared to a saline control” value in data set [1] was “reduced ICP”. Turning to Semaglutide, the “Mean plasma terminal half-life” value (per SmPC) is listed as “Approximately 1 week”. With Lixisenatide, the “Mean plasma terminal half-life” value (per SmPC or FDA product label) is “Approximately 3 hours”.
